± gives the uncertainty stated by the source.
Experiment: self-splicing fitness, log relative to wild type (ln ratio); higher = more splicing; Tetrahymena group I intron in knt gene, E. coli kanamycin selection, DiMSum; sequences stand for … in CUCUCU…GGAGGGAAAAGUUAUCAGGCAUGCACCUGGUAGCUAGUCUUUAAACCAAUAGAUUGCAUCGGUUUAAAAGGCAAGACCGUCAAAUUGCGGGAAAGGGGUCAACAGCCGUUCAGUACCAAGUCUCAGGGGAAACUUUGAGAUGGCCUUGCAAAGGGUAUGGUAAUAAGCUGACGGACAUGGUCCUAACCACGCAGCCAAGUCCUAAGUCAACAGAUCUUCUGUUGAUAUGGAUGCAGUUCACAGACUAAAUGUCGGUCGGGGAAGAUGUAUUCUUCUCAUAAGAUAUAGUCGGACCUCUCCUUAAUGGGAGCUAGCGGAUGAAGUGAUGCAACACUGGAGCCGCUGGGAACUAAUUUGUAUGCGAAAGUAUAUUGAUUAGUUUUGGAGUACUCGUGGUCG
Method in brief: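 Pooled colonies went to amplicon sequencing on an Illumina HiSeq 2500 after six replicate transformations. The plates were LB agar with 100 μg/mL carbenicillin, 50 μM IPTG and 0.2% rhamnose, with or without 25 μg/mL kanamycin, incubated overnight at 37°C or 30°C. The E. coli BL21(DE3) library had all eight P1ex-region intron nucleotides randomised, the intron placed in the knt kanamycin-resistance gene on pET-22b(+). DiMSum fitness is the error-weighted combination of replicate fold changes, kanamycin against none, normalised to wild type.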

For ACAUAGCAAUAUUACGGAAA, the “self-splicing fitness (ln)” value (30 °C) was -2.14 ± 0.26 and the “self-splicing fitness (ln)” value (37 °C) was -2.11 ± 0.2.

In the case of GCACAGCAAUAUUACGUGUA, the “self-splicing fitness (ln)” value (30 °C) is reported as -1.03 ± 0.052 and the “self-splicing fitness (ln)” value (37 °C) is reported as -0.512 ± 0.056.

In the case of CUUGAGCAAUAUUACGAAAG, the “self-splicing fitness (ln)” value (30 °C) is reported as -2.3 ± 0.25 and the “self-splicing fitness (ln)” value (37 °C) is reported as -3.32 ± 0.46.

For GCGAAGCAAUAUUACGUCGA, the “self-splicing fitness (ln)” value (30 °C) was -2.01 ± 0.1 and the “self-splicing fitness (ln)” value (37 °C) was -0.792 ± 0.094.

With GCACAGCAAUAUUACGCGCU the “self-splicing fitness (ln)” value (30 °C) was -2.39 ± 0.22 and the “self-splicing fitness (ln)” value (37 °C) was -1.1 ± 0.19.

With GUUCAGCAAUAUUACGACAG the “self-splicing fitness (ln)” value (30 °C) was -3.33 ± 0.35 and the “self-splicing fitness (ln)” value (37 °C) was -1.76 ± 0.42.

For UCUAAGCAAUAUUACGUGUC, the “self-splicing fitness (ln)” value (30 °C) was -4.21 ± 0.36.

For CGGUAGCAAUAUUACGGAUC, the “self-splicing fitness (ln)” value (30 °C) was -4.27 ± 0.33 and the “self-splicing fitness (ln)” value (37 °C) was -1.68 ± 0.23.

With CGGCAGCAAUAUUACGUAUC the “self-splicing fitness (ln)” value (30 °C) was -3.9 ± 0.33 and the “self-splicing fitness (ln)” value (37 °C) was -2.86 ± 0.27.

For AGUUAGCAAUAUUACGACUG, the “self-splicing fitness (ln)” value (30 °C) was -0.637 ± 0.13 and the “self-splicing fitness (ln)” value (37 °C) was -0.00615 ± 0.18.

With AGCUAGCAAUAUUACGCUGU the “self-splicing fitness (ln)” value (30 °C) was -2.86 ± 0.2 and the “self-splicing fitness (ln)” value (37 °C) was -3.07 ± 0.32.

In the case of CUAGAGCAAUAUUACGGCGG, the “self-splicing fitness (ln)” value (30 °C) is reported as -0.275 ± 0.075 and the “self-splicing fitness (ln)” value (37 °C) is reported as 0.501 ± 0.1.

In the case of GAAAAGCAAUAUUACGUUGG, the “self-splicing fitness (ln)” value (30 °C) is reported as -3.55 ± 0.19 and the “self-splicing fitness (ln)” value (37 °C) is reported as -2.16 ± 0.16.

With AGGUAGCAAUAUUACGACUU the “self-splicing fitness (ln)” value (30 °C) was -0.167 ± 0.014 and the “self-splicing fitness (ln)” value (37 °C) was -0.0309 ± 0.034.

For GUUAAGCAAUAUUACGAGUU, the “self-splicing fitness (ln)” value (30 °C) was -1.36 ± 0.11 and the “self-splicing fitness (ln)” value (37 °C) was -0.688 ± 0.14.

In the case of UCACAGCAAUAUUACGCAAG, the “self-splicing fitness (ln)” value (30 °C) is reported as -2.65 ± 0.17 and the “self-splicing fitness (ln)” value (37 °C) is reported as -1.11 ± 0.15.

In the case of CUUAAGCAAUAUUACGAGUG, the “self-splicing fitness (ln)” value (30 °C) is reported as -1.39 ± 0.068 and the “self-splicing fitness (ln)” value (37 °C) is reported as -0.428 ± 0.1.

In the case of UGCAAGCAAUAUUACGACGA, the “self-splicing fitness (ln)” value (30 °C) is reported as -0.804 ± 0.074 and the “self-splicing fitness (ln)” value (37 °C) is reported as 0.648 ± 0.087.

For GUCCAGCAAUAUUACGAGCG, the “self-splicing fitness (ln)” value (30 °C) was -2.31 ± 0.14 and the “self-splicing fitness (ln)” value (37 °C) was -0.864 ± 0.15.

In the case of GCAGAGCAAUAUUACGUGUA, the “self-splicing fitness (ln)” value (30 °C) is reported as -3.61 ± 0.35 and the “self-splicing fitness (ln)” value (37 °C) is reported as -1.17 ± 0.16.

In the case of CCCCAGCAAUAUUACGUCAG, the “self-splicing fitness (ln)” value (30 °C) is reported as -2.54 ± 0.14 and the “self-splicing fitness (ln)” value (37 °C) is reported as -1.36 ± 0.15.

For ACUAAGCAAUAUUACGCUUC, the “self-splicing fitness (ln)” value (30 °C) was -1.69 ± 0.17 and the “self-splicing fitness (ln)” value (37 °C) was -0.717 ± 0.14.

With AUGUAGCAAUAUUACGUUAU the “self-splicing fitness (ln)” value (30 °C) was -2.41 ± 0.22 and the “self-splicing fitness (ln)” value (37 °C) was -2.12 ± 0.22.

In the case of AGAGAGCAAUAUUACGAAGG, the “self-splicing fitness (ln)” value (30 °C) is reported as -3.13 ± 0.39 and the “self-splicing fitness (ln)” value (37 °C) is reported as -1.42 ± 0.37.

With UCAUAGCAAUAUUACGCUGU the “self-splicing fitness (ln)” value (30 °C) was -2.91 ± 0.17 and the “self-splicing fitness (ln)” value (37 °C) was -1.95 ± 0.24.

For UCGUAGCAAUAUUACGGUGA, the “self-splicing fitness (ln)” value (30 °C) was -1.57 ± 0.096 and the “self-splicing fitness (ln)” value (37 °C) was -1.11 ± 0.1.

For GCGUAGCAAUAUUACGCUCC, the “self-splicing fitness (ln)” value (30 °C) was -1.88 ± 0.2 and the “self-splicing fitness (ln)” value (37 °C) was -0.401 ± 0.39.

For GCGCAGCAAUAUUACGCCGU, the “self-splicing fitness (ln)” value (30 °C) was -1.57 ± 0.13 and the “self-splicing fitness (ln)” value (37 °C) was -2.07 ± 0.27.

For AGCUAGCAAUAUUACGACGG, the “self-splicing fitness (ln)” value (30 °C) was -1.66 ± 0.23 and the “self-splicing fitness (ln)” value (37 °C) was -1.43 ± 0.42.

With GUAAAGCAAUAUUACGCCAA the “self-splicing fitness (ln)” value (30 °C) was -0.7 ± 0.17 and the “self-splicing fitness (ln)” value (37 °C) was -0.982 ± 0.26.

For CGCAAGCAAUAUUACGGAAA, the “self-splicing fitness (ln)” value (30 °C) was -2.31 ± 0.33 and the “self-splicing fitness (ln)” value (37 °C) was -2.5 ± 0.2.

For CCUUAGCAAUAUUACGUCUU, the “self-splicing fitness (ln)” value (30 °C) was -3.66 ± 0.16 and the “self-splicing fitness (ln)” value (37 °C) was -2.61 ± 0.17.

With UACUAGCAAUAUUACGCACU the “self-splicing fitness (ln)” value (30 °C) was -0.822 ± 0.068 and the “self-splicing fitness (ln)” value (37 °C) was 0.229 ± 0.079.

With UGGUAGCAAUAUUACGAAAC the “self-splicing fitness (ln)” value (30 °C) was -4.02 ± 0.42 and the “self-splicing fitness (ln)” value (37 °C) was -2.42 ± 0.45.

For CCCUAGCAAUAUUACGAACU, the “self-splicing fitness (ln)” value (30 °C) was -2.89 ± 0.18 and the “self-splicing fitness (ln)” value (37 °C) was -3.56 ± 0.39.

In the case of GCACAGCAAUAUUACGAGCA, the “self-splicing fitness (ln)” value (30 °C) is reported as -1.55 ± 0.11 and the “self-splicing fitness (ln)” value (37 °C) is reported as -0.832 ± 0.12.

For GGUAAGCAAUAUUACGGCGA, the “self-splicing fitness (ln)” value (30 °C) was -0.523 ± 0.11 and the “self-splicing fitness (ln)” value (37 °C) was -0.26 ± 0.13.

With UGGCAGCAAUAUUACGGCGU the “self-splicing fitness (ln)” value (30 °C) was -1.32 ± 0.12 and the “self-splicing fitness (ln)” value (37 °C) was -0.678 ± 0.14.

With AGAGAGCAAUAUUACGUACC the “self-splicing fitness (ln)” value (30 °C) was -1.69 ± 0.28 and the “self-splicing fitness (ln)” value (37 °C) was -0.0438 ± 0.38.

With AAUUAGCAAUAUUACGAAUG the “self-splicing fitness (ln)” value (30 °C) was -1.55 ± 0.12 and the “self-splicing fitness (ln)” value (37 °C) was 0.187 ± 0.14.

In the case of CUCUAGCAAUAUUACGUCAC, the “self-splicing fitness (ln)” value (30 °C) is reported as -2.66 ± 0.19.

In the case of GAAUAGCAAUAUUACGGGUU, the “self-splicing fitness (ln)” value (30 °C) is reported as -2.48 ± 0.14 and the “self-splicing fitness (ln)” value (37 °C) is reported as -1.86 ± 0.17.

For UUUCAGCAAUAUUACGCGGG, the “self-splicing fitness (ln)” value (30 °C) was -2.27 ± 0.12 and the “self-splicing fitness (ln)” value (37 °C) was -2.35 ± 0.15.

For CGGGAGCAAUAUUACGUUGA, the “self-splicing fitness (ln)” value (30 °C) was -3.82 ± 0.39 and the “self-splicing fitness (ln)” value (37 °C) was -2 ± 0.23.

For GGCCAGCAAUAUUACGGUAA, the “self-splicing fitness (ln)” value (30 °C) was -0.188 ± 0.053 and the “self-splicing fitness (ln)” value (37 °C) was 0.0838 ± 0.061.

For GCCGAGCAAUAUUACGGGGU, the “self-splicing fitness (ln)” value (30 °C) was -4.35 ± 0.33 and the “self-splicing fitness (ln)” value (37 °C) was -2.56 ± 0.2.

For AUAUAGCAAUAUUACGAUGG, the “self-splicing fitness (ln)” value (30 °C) was -3.07 ± 0.31 and the “self-splicing fitness (ln)” value (37 °C) was -0.944 ± 0.26.

For GCGUAGCAAUAUUACGUACA, the “self-splicing fitness (ln)” value (30 °C) was -1.1 ± 0.16 and the “self-splicing fitness (ln)” value (37 °C) was -1.23 ± 0.14.

Reference: the supplement of paper PMC7877785
